{
  "source": "patent US20060242739A1",
  "about": "“Plant nucleotide-sugar pyrophosphatase/phosphodiesterase (nppase), method of obtaining same and use of same in the production of assay devices and in the production of transgenic plants” (Universidad Publica De Navarra, priority 2002, published 2006)",
  "proteins": {"B1": {"name": "NPPase from rice leaves (Oryza sativa Japonica Group) (protein)", "chain": "SRPSSSLEGFQPLSKIAVHKATVDLHGSAFVSATPALLGDQGEDTEWVTVKYGWANPSADDWIAVFSPADFISGSCPNPSRYPDEPLLCTAPIKYQFANYSANYVYWGKGSIRFQLINQRYDFSFALFTGGLENPKLVAVSEAISFKNPKAPVYPRLAQGKSYDEMTVTWTSGYDISEAYPFVEWGMVVAGAAAPTRTAAGTLTFNRGSMCGEPARTVGWRDPGFIHTAFLRDLWPNKEYYYKIGHELSDGSIVWGKQYTFRAPPFPGQNSLQRIIVFGDMGKAERDGSNEFANYQPGSLNTTDRLVEDLDNYDIVFHIGDLPYANGYISQWDQFTAQVAPITAKKPYMIASGNHERDWPNTGGFFDVKDSGGECGVPAETMYYYPAENRANFWYKVDYGMFRFCIADSEHDWREGTDQYKFIEQCLSTVDRKHQPWLIFAAHRVLGYSSNWWYADQGSFEEPEGRESLQRLWQRHRVDVAFFGHVHNYERTCPMYQSQCVSGERRRYSGTMNGTIFVVAGGGGSHLSDYTSAIPKWSVFRDRDFGFVKLTAFNHSSLLFEYKKSSDGKVYDSFTVERDYRDVLSCVHDSCLPTTLAS"}, "B2": {"name": "NPPase from barley leaves (Hordeum vulgare) (protein)", "chain": "SDGSVVWAKPYTFRAPPTPGQNSLQRIIVFGDMGKAERDGSNEFANYQPGSLNTTDRLIEDLDNYDIVFHIGDMPYANGYLSQWDQFTAQVAPISAKKPYMVASGNHERDWPNTGGFFDVKDSGGECGVPAETMYYYPAENRANFWYKVDYGMFRFCVGDSEHDWREGTPQYKFIEECLSTVDRKHQPWLIFTAHRVLGYSSNSWYADQGSFEEPEGRESLQKLWQRYRVDIAYFGHVHNYERTCPLYQSQCVNADKTHYSGTMNGTIFVVAGGGGSHLSSYTTAIPKWSIFRDHDYGFTKLTAFNHSSLLFEYMKSSDGKVYDSFTIHRDYRDVLSCVHDSCFPTTLAS"}},
  "test_in_all_cases": "purified protein, by the assay type",
  "key": {"[1]": {"substrate": "Nc1nc2c(ncn2[C@@H]2O[C@H](COP(=O)(O)OP(=O)(O)O[C@H]3O[C@H](CO)[C@@H](O)[C@H](O)[C@H]3O)[C@@H](O)[C@H]2O)c(=O)[nH]1", "details": "other: substrate of NPPase from rice leaves; pH 7.0; 37.0 °C"}, "[2]": {"substrate": "Nc1nc2c(ncn2[C@@H]2O[C@H](COP(=O)(O)OP(=O)(O)O[C@H]3O[C@H](CO)[C@@H](O)[C@H](O)[C@@H]3O)[C@@H](O)[C@H]2O)c(=O)[nH]1", "details": "pH 7.0"}, "[3]": {"substrate": "Nc1ncnc2c1ncn2[C@@H]1O[C@H](COP(=O)(O)OS(=O)(=O)O)[C@@H](O)[C@H]1O", "details": "other: substrate of NPPase from rice leaves; pH 7.0; 37.0 °C"}, "[4]": {"substrate": "O=[N+]([O-])c1ccc(OP(=O)(O)Oc2ccc([N+](=O)[O-])cc2)cc1", "details": "pH 7.0"}, "[5]": {"substrate": "Nc1ncnc2c1ncn2[C@@H]1O[C@H](COP(=O)(O)OP(=O)(O)OP(=O)(O)O)[C@@H](O)[C@H]1O", "details": "pH 7.0"}, "[6]": {"substrate": "Cc1cn([C@H]2C[C@H](O)[C@@H](COP(=O)(O)OP(=O)(O)O[C@H]3O[C@H](CO)[C@@H](O)[C@H](O)[C@H]3O)O2)c(=O)[nH]c1=O", "details": "other: substrate of NPPase from rice leaves; pH 7.0; 37.0 °C"}, "[7]": {"substrate": "Nc1ncnc2c1ncn2[C@@H]1O[C@H](COP(=O)(O)OP(=O)(O)O[C@H]2O[C@H](CO)[C@@H](O)[C@H](O)[C@H]2O)[C@@H](O)[C@H]1O", "details": "pH 7.0"}, "[8]": {"substrate": "Nc1ccn([C@@H]2O[C@H](COP(=O)(O)OP(=O)(O)O[C@H]3O[C@H](CO)[C@@H](O)[C@H](O)[C@H]3O)[C@@H](O)[C@H]2O)c(=O)n1", "details": "pH 7.0"}, "[9]": {"substrate": "Nc1ncnc2c1ncn2[C@@H]1O[C@H](COP(=O)(O)OP(=O)(O)O)[C@@H](O)[C@H]1O", "details": "pH 7.0"}, "[10]": {"substrate": "Nc1ncnc2c1ncn2[C@@H]1O[C@H](COP(=O)(O)OP(=O)(O)O[C@H]2O[C@H](CO)[C@@H](O)[C@H](O)[C@@H]2O)[C@@H](O)[C@H]1O", "details": "other: substrate of NPPase from barley leaves; pH 7.0"}, "[11]": {"substrate": "NC(=O)c1ccc[n+]([C@@H]2O[C@H](COP(=O)(O)OP(=O)(O)OC[C@H]3O[C@@H](n4cnc5c(N)ncnc54)[C@H](O)[C@@H]3O)[C@@H](O)[C@H]2O)c1", "details": "other: substrate of NPPase from barley leaves; pH 7.0"}, "[12]": {"substrate": "O=[N+]([O-])c1ccc(OP(=O)(O)O)cc1", "details": "other: substrate of NPPase from barley leaves; pH 7.0"}, "[13]": {"details": "other: substrate of NPPase from rice leaves, 37.0 °C"}, "[14]": {"details": "other: substrate of NPPase from barley leaves"}},
  "data": [
    {"protein": "B1", "values": [
      {"measurement": "Km", "setting": "[1]", "value": 0.93, "unit": "mM"},
      {"measurement": "Vmax", "setting": "[1]", "value": 119, "unit": "µmol/min/mg"},
      {"measurement": "kcat/Km", "setting": "[1]", "value": 148000, "unit": "M⁻¹ s⁻¹"},
      {"measurement": "Km", "setting": "[2]; [13]", "value": 0.80, "unit": "mM"},
      {"measurement": "Vmax", "setting": "[2]; [13]", "value": 129, "unit": "µmol/min/mg"},
      {"measurement": "kcat/Km", "setting": "[2]; [13]", "value": 190000, "unit": "M⁻¹ s⁻¹"},
      {"measurement": "Km", "setting": "[3]", "value": 3.04, "unit": "mM"},
      {"measurement": "Km", "setting": "[4]; [13]", "value": 1.30, "unit": "mM"},
      {"measurement": "Vmax", "setting": "[4]; [13]", "value": 191, "unit": "µmol/min/mg"},
      {"measurement": "kcat/Km", "setting": "[4]; [13]", "value": 171000, "unit": "M⁻¹ s⁻¹"},
      {"measurement": "Km", "setting": "[5]; [13]", "value": 2.06, "unit": "mM"},
      {"measurement": "Vmax", "setting": "[5]; [13]", "value": 356, "unit": "µmol/min/mg"},
      {"measurement": "kcat/Km", "setting": "[5]; [13]", "value": 203000, "unit": "M⁻¹ s⁻¹"},
      {"measurement": "Km", "setting": "[6]", "value": 0.60, "unit": "mM"},
      {"measurement": "Vmax", "setting": "[6]", "value": 106, "unit": "µmol/min/mg"},
      {"measurement": "kcat/Km", "setting": "[6]", "value": 206000, "unit": "M⁻¹ s⁻¹"},
      {"measurement": "Km", "setting": "[7]; [13]", "value": 0.60, "unit": "mM"},
      {"measurement": "Vmax", "setting": "[7]; [13]", "value": 183, "unit": "µmol/min/mg"},
      {"measurement": "kcat/Km", "setting": "[7]; [13]", "value": 350000, "unit": "M⁻¹ s⁻¹"},
      {"measurement": "Km", "setting": "[8]; [13]", "value": 0.92, "unit": "mM"},
      {"measurement": "Vmax", "setting": "[8]; [13]", "value": 107, "unit": "µmol/min/mg"},
      {"measurement": "Km", "setting": "[9]; [13]", "value": 4.33, "unit": "mM"},
      {"measurement": "Vmax", "setting": "[9]; [13]", "value": 385, "unit": "µmol/min/mg"},
      {"measurement": "kcat/Km", "setting": "[9]; [13]", "value": 100000, "unit": "M⁻¹ s⁻¹"}
    ]},
    {"protein": "B2", "values": [
      {"measurement": "Km", "setting": "[2]; [14]", "value": 0.4, "unit": "mM"},
      {"measurement": "Km", "setting": "[10]", "value": 0.4, "unit": "mM"},
      {"measurement": "Km", "setting": "[11]", "value": 2.5, "unit": "mM"},
      {"measurement": "Km", "setting": "[4]; [14]", "value": 0.3, "unit": "mM"},
      {"measurement": "Km", "setting": "[12]", "value": 0.5, "unit": "mM"},
      {"measurement": "Km", "setting": "[5]; [14]", "value": 3.5, "unit": "mM"},
      {"measurement": "Km", "setting": "[7]; [14]", "value": 0.5, "unit": "mM"},
      {"measurement": "Km", "setting": "[8]; [14]", "value": 2.8, "unit": "mM"},
      {"measurement": "Km", "setting": "[9]; [14]", "value": 3.5, "unit": "mM"}
    ]}
  ]
}
